# Laboratory results published in paper PMC7838286.
# Assays:
# [1] = target: Cp150 homodimer (Cp149 variant with a C-terminal cysteine) (Hepatitis B Virus); experiment: cryo-EM structure; capsids left after treatment of co-assembled capsids with 3 M urea and 100 uM EDTA; C1 symmetry throughout; complete capsid 6.2 Å, holey capsids 10.8 Å and 12.9 Å
# [2] = target: Cp150 homodimer (Cp149 variant with a C-terminal cysteine) (Hepatitis B Virus); experiment: SEC; 2 uM Cp150Bo with 4 uM holey capsid, 300 mM NaCl, 23 °C, 24 h; 2 uM Cp150Bo alone with 300 mM NaCl as control; Superose 6 with absorbance at 280 and 504 nm and fluorescence at 512 nm
substance,measurement,setting,value
Cp150 homodimer (Cp149 variant with a C-terminal cysteine) (domain or fragment),stoichiometry N,[1],120 dimers
Cp150Bo homodimer (BODIPY-FL-labeled Cp150) (domain or fragment),Cp150Bo dimers added per holey capsid (dimers per holey capsid),[2],16
